Positions count from the first letter of the chain named.
B1: Anti-BCMA.BMK2_ADCC.high (antibody, human IgG1, kappa)
heavy: EVQLQQSGAVLARPGASVKMSCKGSGYTFTNYWMHWVKQRPGQGLEWIGATYRGHSDTYYNQKFKGKAKLTAVTSTSTAYMELSSLTNEDSAVYYCTRGAIYNGYDVLDNWGQGTLVTVSSASTKGPSVFPLAPSSKSTSGGTAALGCLVKDYFPEPVTVSWNSGALTSGVHTFPAVLQSSGLYSLSSVVTVPSSSLGTQTYICNVNHKPSNTKVDKKVEPKSCDKTHTCPPCPAPELLGGPDVFLFPPKPKDTLMISRTPEVTCVVVDVSHEDPEVKFNWYVDGVEVHNAKTKPREEQYNSTYRVVSVLTVLHQDWLNGKEYKCKVSNKALPLPEEKTISKAKGQPREPQVYTLPPSRDELTKNQVSLTCLVKGFYPSDIAVEWESNGQPENNYKTTPPVLDSDGSFFLYSKLTVDKSRWQQGNVFSCSVMHEALHNHYTQKSLSLSPGK
light: DIQLTQTTSSLSASLGDRVTISCSASQDISNYLNWYQQKPDGTVELVIYYTSNLHSGVPSRFSGSGSGTDYSLTIGYLEPEDVATYYCQQYRKLPWTFGGGSKLEIKRRTVAAPSVFIFPPSDEQLKSGTASVVCLLNNFYPREAKVQWKVDNALQSGNSQESVTEQDSKDSTYSLSSTLTLSKADYEKHKVYACEVTHQGLSSPVTKSFNRGEC
notes: Monoclonal IgG1 with ADCC-high Fc mutations; also called ADCC-high variant of Anti-BCMA BMK2 antibody
B2: Anti-CD38 LC_Y92A (antibody, V domains shown)
VH: EVQLLESGGGLVQPGGSLRLSCAASGFSFNNYWIIWIRQAPGKGLEWVAAIYSPSGDIKYYADWAKGRFTVSKDNSKNTVYLQMNSLRAEDTAVYYCARELSGSSYEGYFESWGQGTLVTVSS
VL: DIQLTQSPSTLSASVGDRVTITCRSSQSVYGHNWLAWYQQKPGKAPKLLMYRASNLASGVPSRFSGSGSGTEFTLTISSVQPDDFATYYCQGYASGGSYAFGGGTKVEIK
notes: Alanine variant of h18E4-19 with the parent VH
B3: Anti-CD38 LC_Y96A (antibody, V domains shown)
VH: B2 VH
VL: B2 VL with A94Y, Y99A
notes: as for B2
B4: Anti-BCMA (antibody, human IgG1, kappa)
heavy: not shown
light: DIQLTQTTSSLSASLGDRVTISCSASQDISNYLNWYQQKPDGTVELVIYYTSNLHSGVPSRFSGSGSGTDYSLTIGYLEPEDVATYYCQQYRKLPWTFGGGSKLEIKRTVAAPSVFIFPPSDEQLKSGTASVVCLLNNFYPREAKVQWKVDNALQSGNSQESVTEQDSKDSTYSLSSTLTLSKADYEKHKVYACEVTHQGLSSPVTKSFNRGEC
notes: also called Anti-BCMA BMK2 antibody; Anti-BCMA.BMK2

How the values were obtained:
[1] = molecular target: T1, recombinant BCMA (Sino Biological 10620-H03H-B) (human, UniProt Q02223 1-54); test: ELISA, plate coated with recombinant BCMA
T1 construct: Bought protein; also called human BCMA
T1 sequence (looked up): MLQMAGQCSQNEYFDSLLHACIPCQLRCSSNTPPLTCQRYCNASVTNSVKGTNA

[2] = molecular target: T2, human CD38 extracellular domain (hCD38, recombinant, with AviTag) (human, UniProt P28907 43-300); test: ELISA on human CD38 ECD, EC50 class
T2 construct: also called recombinant CD38; huCD38

| Binder | EC50 [1] [nM] | EC50 [2] [nM] |
| --- | --- | --- |
| B1 | ~0.02 | – |
| B2 | – | 0.02 to 0.1 |
| B3 | – | 0.1 to 0.5 |
| B4 | ~0.02 | – |

From patent publication US20230183381A1 (VIRTUOSO BINCO, published 2023)
